Measured values reported in patent US10632208B2, “Peptide-mediated drug delivery across epithelial barrier” (Purdue Research Foundation, priority 2017, dated 2020).

Experiments:
[1] = test system: Caco-2 cell monolayers; assay: Apical-to-basolateral flux of paracellular marker FD4 through Caco-2 monolayers; assay type: cell-based, human; conditions: LAP 1 μg/mL, over a 72-h period; TNF-α 10 ng/mL positive control
Experimental: To determine the effect of LAP on Caco-2 permeability at specified time points (0, 24, 48 and 72 h) following incubation with recombinant purified LAP, 100 μl of FD4 (1 mg/mL in DMEM) was added to the apical side and the fluorescence readings (Em: 485 nm; Ex: 520 nm; Spectramax, Molecular Devices) for the basal medium (100 μl) were measured. Human TNF-α (10 ng/mL, R&D Systems) was added to both apical and basal sides and used as a positive control.

[2] = test system: L. monocytogenes; assay: Translocation of L. monocytogenes through polarized Caco-2 monolayers on Transwell filter-inserts; assay type: cell-based, Listeria monocytogenes; conditions: LAP 1 or 2 μg/mL, MOI 50
Experimental: Caco-2 cells were grown as monolayers on Transwell inserts with 3.0 μm pores (Corning-Costar) for up to 14-21 days. TEER was measured to monitor the monolayer integrity (Millicells Voltmeter, Millipore). A TEER value of at least 200 Ω/cm^2 (±10) was used as the basal value to monitor the monolayer integrity. Bacterial cells were washed three times in PBS and resuspended in DMEM-FBS (10%) at a MOI of ˜50 and were added to the apical side of the Transwell system, and after 2 h incubation period at 37° C. in 5% CO2, the liquid was collected from the basal well, and then translocated bacteria were enumerated by plating (Burkholder and Bhunia, 2010). For analysis of FD4 flux, non-metabolizable 4 kDa FITC-labeled dextran (FD4; 5 mg/ml, Sigma-Aldrich) was added with bacteria (MOI, ˜50) resuspended in DMEM-FBS (10%) and added to the apical side. After 2 h incubation at 37° C. in 5% CO2, the liquid was collected from the basal well and fluorescence was measured (Em: 485 nm; Ex: 520 nm; Spectramax, Molecular Devices). For pharmacological inhibition treatments, PDTC (100 μM for 30 min pre-treatment; R&D Systems), Bay-11-7085 (10 μM for 30 min pre-treatment; Sigma-Aldrich), ML-9 (20 μM for 30 min pre-treatment; Sigma-Aldrich), PIK (150 μM, 30 min-pre-treatment and kept during 2-h infection) (Zolotarevsky et al., 2002), and Cytochalasin D (1 μg/mL for 1 h; Sigma-Aldrich) were used separately.
For re-association of externally added LAP to the lap^− mutant, bacteria were harvested from 1 ml of overnight grown culture, and the pellet was washed three times in PBS before the addition of 1 or 2 μg/mL of purified LAP. The mixture was incubated for 30 min at 30° C. with continuous shaking and then pelleted, washed five times in the PBS, resuspended in DMEM, and used in the aforementioned translocation assay.

[3] = test system: human TNF-α; assay: ELISA of TNF-α in Caco-2 cell supernatants; assay type: cell-based; conditions: recombinant LAP 1 μg/mL, 8 h
Experimental: A semi-quantitative membrane-based RayBio Human Inflammation Antibody Array kit (Ray Biotech) was used to analyze a panel of 40 inflammatory mediators in Caco-2 cell supernatant infected either with the WT or lap^− strain (MOI, ˜50) at 37° C. for 1 h. After killing the extracellular bacteria by gentamicin (50 μg/mL), the Caco-2 cells were incubated for an additional 7 h at 37° C. Recombinant LAP (1 μg/mL) from ClearColi was incubated for 8 h with Caco-2 cells. After immunoblotting, the reaction intensity was quantified using NIH ImageJ software. The data were normalized and expressed as the mean fold changes as a ratio of lap^−/WT±SEM. For the ELISA, Caco-2 cell supernatants were centrifuged (2,000 rpm at 4° C. for 10 min) following treatment as above, and the quantification of TNF-α and IL-6 in was performed using human TNF-α and IL-6 ELISA kits (Ray Biotech) as per manufacturer's instruction. The quantification of TNF-α and IL-6 protein levels was performed in the ileal tissue lysates from mice using mouse TNF-α and IL-6 ELISA kits (Ray Biotech) as per manufacturer's instruction.

[4] = test system: NF-κB(p65); assay: Immunoblot of NF-κB activation in Caco-2 cytoplasmic and nuclear extracts; assay type: cell-based, human
Experimental: To extract the proteins from Caco-2 cells, cells were seeded in 6-well plates for 14-21 days. Following treatment, the cells were washed, scraped from the bottom of 6-well plates, suspended in PBS, and pelleted by centrifugation. Total protein from Caco-2 cells was extracted using the M-PER Extraction Kit (Thermo Fisher Scientific). Detergent-insoluble (membrane) and detergent-soluble (cytosolic) proteins were isolated using a Mem-Per Eukaryotic Protein Extraction Kit (Thermo Fisher Scientific) while the cytosolic and nuclear proteins were extracted using NE-PER Extraction Reagent (Thermo Fisher Scientific). To extract proteins from ileal epithelial cells, the epithelial cell fraction from ileal tissues were isolated as described above and the detergent-insoluble and the detergent-soluble proteins were isolated using a Mem-Per Eukaryotic Protein Extraction Kit.
To extract total protein from intact bacterial cells, sample solvent buffer and sonication (3 cycles of […]) were used. To isolate the cell wall-associated proteins bacterial pellets were resuspended in 0.5 ml protein extraction buffer (0.5% SDS, 10 mM Tris at pH 6.9), and incubated at 37° C. for 30 min with agitation. The samples were centrifuged (14,000×g, 10 min, 4° C.), and the supernatants (containing cell wall-associated proteins) were retained. Halt proteases and phosphatase inhibitors (Thermo Fisher Scientific) were used during all of the protein extraction procedures. The protein concentrations were determined by BCA assay (Thermo Fisher Scientific), and separated on SDS-PAGE gels (10-12.5% polyacrylamide) and electro-transferred to polyvinylidene difluoride (PVDF) membrane (Millipore). The membranes were then blocked in 5% nonfat dry milk (NFDM) in 0.1 M Tris-buffered saline, pH 7.5 (TBS) containing 0.1% Tween 20 (TBST) for at least 1 h. All of the primary antibodies were diluted in 5% bovine serum albumin (BSA) or 5% NFDM in TBST and incubated overnight. Secondary antibodies (1:2000 in 5% NFDM in TBST) incubated for 1 h at 37° C., and a chemiluminescence method was performed using LumiGLO reagent (Cell Signaling). The membranes were exposed to X-ray films or visualized using the Chemi-Doc XRS system (Bio-Rad). To immunoprobe the same membrane with another antibody, the originally bound antibodies from the membranes were removed by incubating the membranes in Restore Western Blot Stripping Buffer (Thermo Fisher Scientific) according to the manufacturer's protocol. To compare the reaction intensities, the average band densities were determined using Quantity One software (Bio-Rad). Densitometry reports represent the mean±SEM after normalization to the loading control and is presented as % change of protein with the average for untreated cells (control) set at 100%. Immunoblots and densitometric reports are representative of 2-3 independent experiments.

[5] = Caco-2 cells, LAP 1 μg/ml, 30 min (FIG. 5D)
[6] = LAP 1000 ng/mL or TNF-α 10 ng/mL
[7] = shRNA vector control Caco-2 cells, LAP 1 μg/mL (FIG. 5B)

B1: LAP: Listeria adhesion protein, alcohol acetaldehyde dehydrogenase of Listeria monocytogenes, 866 aa, 94 kDa; recombinant, histidine-tagged form SEQ ID NO: 10 (protein)
chain: MAIKENAAQEVLEVQKVIDRLADNGQKALKAFESYNQEQVDNIVHAMALAGLDQHMPLAKLAVEETGRGLYEDKCIKNIFATEYIWNNIKNNKTVGVINEDVQTGVIEIAEPVGVVAGVTPVTNPTSTTLFKAIIAIKTRNPIIFAFHPSAQRCSSAAAKVVYDAAIAAGAPEHCIQWVEKPSLEATKQLMNHDKVALVLATGGAGMVKSAYSTGKPALGVGPGNVPAYIDKTAKIKRSVNDIILSKSFDQGMICASEQAVIVDKEVAKEVKAEMEANKCYFVKGAEFKKLESYVINPEKGTLNPDVVGKSPAWIANQAGFKVPEDTKILVAEIKGVGDKYPLSHEKLSPVLAFIEAANQAEAFDRCEEMLVYGGLGHSAVIHSTDKEVQKAFGIRMKACRIIVNAPSAQGGIGDIYNGFIPSLTLGCGSYGKNSVSQNVSATNLLNVKRIADRRNNMQWFKLPPKIFFEKYSTQYLQKMEGVERVFIVTDPGMGSFKYVDVVIEHLKKRGNDVAYQVFADVEPDPSDVTVYKGAELMKDFKPDTIIALGGGSAMDAAKGMWLFYEHPEASFFGLKQKFLDIRKRTFKYPKLGGKAKFVAIPTTSGTGSEVTPFAVITDKENNIKYPLADYELTPDVAIVDAQYVTTVPAHITADTGMDVLTHAIESYVSVMASDYTRGLSIRAIELVFENLRESVLTGDPDAREKMHNASALAGMAFANAFLGINHSLAHKIGPEFHIPHGRANAILMPHVIRYNALKPKKHALFPRYESFRADEDYARISRIIGFPAATTEEGVKSLVDEIIKLGKDVGIDMSLKGQNVAKKDLDAVVDTLADRAFMDQCTTANPKQPLVSELKEIYLEAYKGV
modifications: Listeria monocytogenes
[1]
  FD4 permeability: significant increase in FD4 permeability equivalent to TNF-α
[2]
  translocation of the lap- strain after pre-incubation with exogenous purified LAP: rescued the translocation defect
[3]
  TNF-α production: significantly higher levels
[4]; [5]
  increase of IKK-β protein expression: 53±2%
  increase of p65 protein expression: 63±5%
[4]; Hsp60 knocked-down (hsp60::shRNA) Caco-2 cells, LAP 1 μg/mL
  protein expression levels of IKK-β and p65: basal protein expression levels
[4]; LAP 1 μg/mL, 30 min
  increase of IKKα in the cytosol relative to untreated cells: 267±7%
  increase of P-p65 in the nucleus relative to untreated cells: 120±23%
  increase of p65 in the nucleus relative to untreated cells: 218±32%
[4]; [6]
  time of appearance of cytoplasmic phospho-IκBα (Ser32): 15 min
  time of increase in nuclear p65 and P-p65: 30 min
[4]; LAP 1000 ng/mL, 0-120 min
  time by which most IκBα was degraded: ≤ 45 min
  time of rapid degradation of IκBα: ≤ 15 min
[4]; [7]
  increase of IKK-β protein expression: 52±8%
  increase of p65 protein expression: 54±8%
